Source: publication PMC5421625 (2017)

T1: MCPyV (Merkel cell polyomavirus) common T-Ag peptide on HLA-A*02:01 (human)
T1 peptide: KLLEIAPNC

T2: MCPyV (Merkel cell polyomavirus) common T-Ag peptide on HLA-A*02:01 (human)
T2 peptide: KLLEIAPNC


Target: T1, MCPyV (Merkel cell polyomavirus) common …
Experiment: multimer staining

Binder | binding result
w678 clonotype 5 (TCR) alpha TRAV38-1*01 TRAJ43*01 CDR3: CAFRVSHDMRF beta TRBV10-2*01 TRBJ2-3*01 CDR3: CASSSGNPSTDTQYF | recognises
w678 clonotype 2 (TCR) alpha TRAV38-1*01 TRAJ43*01 CDR3: CAFRVSHDMRF beta TRBV19*01 TRBJ2-1*01 CDR3: CASSIIAGSSYNEQFF | recognises
w678 clonotype 4 (TCR) alpha TRAV12-1*01 TRAJ45*01 CDR3: CVVATYSGGGADGLTF beta TRBV10-2*01 TRBJ2-3*01 CDR3: CASSSGNPSTDTQYF | recognises

Target: T2, MCPyV (Merkel cell polyomavirus) common …
Experiment: multimer staining

Binder | binding result
w830 clonotype 4 (TCR) alpha TRAV12-1*01 TRAJ43*01 CDR3: CVLNNNDMRF beta TRBV19*01 TRBJ1-5*01 CDR3: CASSILGASNQPQHF | recognises
w876 clonotype 5 (TCR) alpha TRAV38-1*01 TRAJ23*01 CDR3: CAYNQGGKLIF beta TRBV10-2*01 TRBJ2-2*01 CDR3: CASSVLNTGELFF | recognises
w678 clonotype 4 (TCR) alpha TRAV12-1*01 TRAJ45*01 CDR3: CVVATYSGGGADGLTF beta TRBV10-2*01 TRBJ2-3*01 CDR3: CASSSGNPSTDTQYF | recognises
w830 clonotype 5 (TCR) alpha TRAV12-1*01 TRAJ43*01 CDR3: CVVNANDMRF beta TRBV10-3*01 TRBJ2-2*01 CDR3: CAIRARDQNTGELFF | recognises
